Test system: Bacillus subtilis
Assay: cleaved RNA product abundance (RNA/gDNA barcode ratio) relative to median wild-type variant (ratio to wild type); higher = more accumulation of the downstream cleavage product
How it was run: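 Reporter mRNAs (truncated aprE or tetM) carrying barcoded, mutagenized RNase Y cleavage-site windows were made from oligos with a 9% error rate and integrated into the B. subtilis chromosome. Cultures grew in LB at 37°C from OD600 0.0003 to 0.3. Cleaved RNA was gel-selected, reverse transcribed and barcode-sequenced alongside genomic DNA barcodes, with UMI collapsing. Cleaved product abundance is the RNA:gDNA barcode ratio per variant, scaled to the median wild-type variant.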

[1] = experiment (reporter, strain, medium): exp 4a: truncated aprE reporter, strain BJT201 with 2% xylose (RNase J1 expressed), cleavage site: cggR-gapA (positions -7 to +36 mutated)
[2] = experiment (reporter, strain, medium): exp 8a: truncated aprE reporter, strain BJT201 with 2% xylose (RNase J1 expressed), cleavage site: glnRA (positions -5 to +31 mutated)
[3] = experiment (reporter, strain, medium): exp 6: tetM reporter, strain 168, cleavage site: cggR-gapA (positions -7 to +36 mutated)
[4] = experiment (reporter, strain, medium): exp 2b: truncated aprE reporter, strain BJT200, cleavage site: cggR-gapA (positions -7 to +36 mutated)

| Sequence | cleaved RNA product abundance [1] | cleaved RNA product abundance [2] | cleaved RNA product abundance [3] | cleaved RNA product abundance [4] |
| --- | --- | --- | --- | --- |
| ACAGACGAAGGAGCCGCAAAGAAGTTATTAAGGGATGAGTAATTCCTCAATATAAATATCTCTCACTTATTTAAA | 0.452 | – | – | – |
| CGACATGTCCCGCTTCTTTCATTAAACCGTAAGCAACTGTTTTGCTATATACATTTACCTTTTAAGAGGAGGAAT | – | 0.203 | – | – |
| CGACATGTCCCGCTTCTTTCATTAATCCTTTAGCAACTGATTTGCTATATACATTTACCTTTTAAGAGGAGGAAT | – | 0.509 | – | – |
| CGACATGTCCCGCTTCTTTCATTAATCCGTTAGCAAATGTTTTGATATATACATTTACCTTTTAAGAGGAGGAAT | – | 0.418 | – | – |
| ACAGACGAAGGAGCCGCAGAGAAGTTAATAAGGGATGAATAATCCCTCAATATAAATATCTCTCACTTATTTAAA | 0.449 | – | – | – |
| ACAGACGAAGGAGCCGCAAAGAAGTTATTAAGGGATGAACAATCCCTCAATAAAAATATCTCTCACTTATTTAAA | 0.151 | – | – | – |
| CGACATGTCCCGCTTCTTTCATTAATCCGTTAGTAACTGTTTTGCTATATACATTTACCTTTTAAGAGGAGGAAT | – | 0.379 | – | – |
| CGACATGTCCCGCTTCTTTCATTAATCCGTTAGCAACTGATTTGCTATATACATTTACCTTTTAAGAGGAGGAAT | – | 0.96 | – | – |
| ACAGACGAAGGAGCCGCACAGAAGTTATTAAGGGATGAATAATCCCTGAATATAAATATCTCTCACTTATTTAAA | 0.523 | – | – | – |
| ACAGACGAAGGAGCCACAAAGAAGTTATTAAGGGATGAATAATCCCTCAATATAAATATCTCTCACTTATTTAAA | – | – | 1.09 | – |
| ACAGACGAAGGAGCCGCAAAGAAGTTATTAAGCGATAAATAATCCCTCAATATAAATATCTCTCACTTATTTAAA | 0.0716 | – | – | 0.0673 |
| ACAGACGAAGGAGCCGCAAAGAAGTTATTAAGTGATGAATAATCCCTCAATATAATTATCTCTCACTTATTTAAA | 0.0685 | – | – | – |
| ACAGACGAAGGAGCCGCAAAGAAGTTATTAAGGGATCAATAGTCCCTCAATATAAATATCTCTCACTTATTTAAA | 0.828 | – | – | – |
| ACAGACGAAGGAGCCGCAAAGAAGTTATTAAGGGATTAATAATCCATCAATATAAATATCTCTCACTTATTTAAA | 0.288 | – | – | 0.401 |
| ACAGACGAAGGAGCCGCAAATAAGTTATTAATGGATGAATAATCCCTCAATATAAATATCTCTCACTTATTTAAA | 0.184 | – | – | 0.123 |
| CGACATGTCCCGCTTCTTTCATTAATACGTTAGCAACTGTTTTACTATATACATTTACCTTTTAAGAGGAGGAAT | – | 0.547 | – | – |
| ACAGACGAAGGAGCCGCAAAGTAGTTATTAAGGGATGAATAATCCCTCAATATATATATCTCTCACTTATTTAAA | 0.884 | – | – | – |
| CGACATGTCCCGCTTCTTTCATTAATCCGTTAACAACTGTTTTGCCATATACATTTACCTTTTAAGAGGAGGAAT | – | 0.114 | – | – |
| ACAGACGAAGGAGCCGCAAAAAAGTTATTAAGGGATGAAAAATCCCTCAATATAAATATCTCTCACTTATTTAAA | 0.695 | – | – | 0.785 |
| ACAGACGAAGGAGCCGCAAATTAGTTATTAAGGGATGAATAATCCCTCTATATAAATATCTCTCACTTATTTAAA | 0.215 | – | – | – |
| ACAGACGAAGGAGCCGCAAAGAAGTAATTAAGGGATGAATAATCCCTCAATATAAATATCTCTCACTTATTTAAA | 0.333 | – | 0.32 | 0.241 |

| Sequence | cleaved RNA product abundance [1] | cleaved RNA product abundance [2] | cleaved RNA product abundance [3] | cleaved RNA product abundance [4] |
| --- | --- | --- | --- | --- |
| ACAGACGAAGGAGCCGCAAAGAATTTATTAAGGAATGAATAATCCCTCAATATAAATATCTCTCACTTATTTAAA | 0.125 | – | – | 0.0897 |
| ACAGACGAAGGAGCCGCAAAGAAATTATTAAGGTATGAATAATCCCTCAATATAAATATCTCTCACTTATTTAAA | 0.105 | – | – | 0.122 |
| ACAGACGAAGGAGCCGCAAAGAAGTTAATAAGGGATGAAGAATCCCTCAATATAAATATCTCTCACTTATTTAAA | 0.278 | – | – | – |
| ACAGACGAAGGAGCCGCAAAGAAGTTATTAAGGGATGAATAAACCCTCAATGTAAATATCTCTCACTTATTTAAA | 0.19 | – | – | – |
| CGACATGTCCCGCTTCTTTCATTAATCCGTTAGCAAATGTTTTGCTATATACATTTACCATTTAAGAGGAGGAAT | – | 1.4 | – | – |
| CGACATGTCCCGCTTCTTTCATTAATCCGTTATCAACTGTTTTCCTATATACATTTACCTTTTAAGAGGAGGAAT | – | 0.292 | – | – |
| CGACATGTCCCGCTTCTTTCATTAATCCGTTAGCAATTGTTTTGCTTTATACATTTACCTTTTAAGAGGAGGAAT | – | 0.361 | – | – |
| ACAGACGAAGGAGCCGCAAAGAAGTGATTAAGGGATGAATAATCCCTCAATATAAATATCTCTCACTTATTTAAA | 0.391 | – | 0.274 | 0.318 |
| CGACATGTCCCGCTTCTTTCATTAATCCGTTAGCAACTTATTTGCTATATACATTTACCTTTTAAGAGGAGGAAT | – | 1.85 | – | – |
| ACAGACGAAGGAGCCGCAAAGAAGTTATTAAGGGAGGAATAATCCCTCAATATAAATATCTCTCACTTATTTAAA | 0.603 | – | 0.591 | 0.499 |
| ACAGACGAAGGAGCCGCAAAGAAGTTATTAAGTGATGAATAATCCCTTAATATAAATATCTCTCACTTATTTAAA | 0.388 | – | – | 0.6 |
| CGACATGTCCCGCTTCTTTCATTAATCCGTTAGCAACTGTTTTACTATATACATATACCTTTTAAGAGGAGGAAT | – | 1.11 | – | – |
| CGACATGTCCCGCTTCTTTCATTAATCCGTTTGCACCTGTTTTGCTATATACATTTACCTTTTAAGAGGAGGAAT | – | 0.295 | – | – |
| ACAGACGAAGGAGCCGCAAAGAAGTTCTTAAGGGATGAATAATCCCTCAATATAAATATCTCTCACTTATTTAAA | 0.254 | – | 0.299 | 0.168 |
| CGACATGTCCCGCTTCTTTCATTAATCCATAAGCAACTGTTTTGCTATATACATTTACCTTTTAAGAGGAGGAAT | – | 0.462 | – | – |
| ACAGACGAAGGAGCCGCAAAGAAGTTATTACGGGATGAATAAGCCCTCAATATAAATATCTCTCACTTATTTAAA | – | – | – | 0.189 |
| CGACATGTCCCGCTTCTTTCATTATTCCGTTAGCAACTGTCTTGCTATATACATTTACCTTTTAAGAGGAGGAAT | – | 1.31 | – | – |
| ACAGACGAAGGAGCCGCAAAGAAGTTATTAAGGGATGAAAAATCCATCAATATAAATATCTCTCACTTATTTAAA | 0.223 | – | – | 0.141 |
| ACAGACGAAGGAGCCGCAAAGAAGTTTCTAAGGGATGAATAATCCCTCAATATAAATATCTCTCACTTATTTAAA | 0.344 | – | – | 0.234 |
| CGACATGTCCCGCTTCTTTCATTAATCCGTTAGCAACTCTTTTGCTATATACATTTAACTTTTAAGAGGAGGAAT | – | 1.36 | – | – |

Source: the supplement of paper PMC11780869
